Numbering of substitutions follows the chain as printed.
T1: murine MerTK overexpressed on CHO cells (CHO-muMerTK OE cells) (mouse, UniProt Q60805 19-994)
T1 construct: whole, on cells
T1 sequence (looked up): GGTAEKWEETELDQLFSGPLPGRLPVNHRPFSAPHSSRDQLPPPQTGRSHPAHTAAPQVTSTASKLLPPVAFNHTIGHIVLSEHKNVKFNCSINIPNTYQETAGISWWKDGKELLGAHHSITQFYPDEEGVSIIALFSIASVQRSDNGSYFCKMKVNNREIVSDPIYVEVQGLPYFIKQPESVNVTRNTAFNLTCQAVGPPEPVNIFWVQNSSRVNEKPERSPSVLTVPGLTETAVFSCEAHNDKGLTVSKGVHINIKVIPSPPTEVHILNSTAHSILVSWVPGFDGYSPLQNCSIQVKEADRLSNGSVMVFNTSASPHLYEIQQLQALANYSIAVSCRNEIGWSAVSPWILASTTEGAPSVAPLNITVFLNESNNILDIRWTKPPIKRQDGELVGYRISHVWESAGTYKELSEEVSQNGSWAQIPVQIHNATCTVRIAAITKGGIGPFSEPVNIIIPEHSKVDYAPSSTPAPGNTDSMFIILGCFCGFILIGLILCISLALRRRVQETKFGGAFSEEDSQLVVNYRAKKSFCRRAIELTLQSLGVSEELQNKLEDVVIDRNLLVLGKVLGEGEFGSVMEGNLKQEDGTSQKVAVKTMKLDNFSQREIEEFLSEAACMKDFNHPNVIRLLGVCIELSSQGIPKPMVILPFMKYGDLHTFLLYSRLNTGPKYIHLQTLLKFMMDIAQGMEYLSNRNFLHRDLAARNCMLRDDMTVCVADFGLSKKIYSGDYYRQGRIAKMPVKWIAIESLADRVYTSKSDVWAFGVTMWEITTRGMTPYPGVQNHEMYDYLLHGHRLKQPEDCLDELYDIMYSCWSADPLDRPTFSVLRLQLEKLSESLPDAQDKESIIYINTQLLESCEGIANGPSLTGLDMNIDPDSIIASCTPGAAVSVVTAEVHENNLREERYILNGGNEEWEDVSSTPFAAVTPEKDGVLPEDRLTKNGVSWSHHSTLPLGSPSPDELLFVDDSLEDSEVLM

B1: MTK-29 (antibody, human IgG1, V domains shown)
VH: QIQLVQSGPELKKPGETVKISCKSSGFTFTTYGMSWVKQAPGKGLKWMGWINTYSGVPTYTDDFKGRFAFSLETSASTASLQINNLKNEDTATYFCARYTNYGYFDYWGQGTTLTVSS
VL: QIVLSQSPAILSASPGEKVTMTCRATSSVGYMHWYQQKPGSSPKPWIYATSNLASGVPARFSGSGSGTSYSLTISRVEAEHAATYYCQQWGSNPFTFGSGTKLEIK
B2: MTK-33 (antibody, human IgG1, V domains shown)
VH: QVQLQQPGPELVRPGTSVKLSCKASGYTFTSYWMHWIKQRPGQGLEWIGVIDPSDNYINYNQKFKGKATLTVDTSSSTAYLQLSSLTSEDSAVYYCAREAGTRGYFDYWGQGTTLTVSS
VL: SIVMTQTPKFLLVSAGDRVIITCKASQSVSNTVAWYQQKPGQSPKLLIYYASNRYTGVPDRFTGSGYGTDFTFTISTVQAEDLAVYFCQQDYRSPFTFGSGTQLEMK
B3: MTK-24 (antibody, human IgG1, V domains shown)
VH: QVQLQQPGAELVKPGASVKLSCKASGYTFTSYWMHWVKQRPGQGLEWIGMIHPNINTNYNEKFKSKATLTVDISSSTAYMQLSSLTSEDSAVYYCAKRSPYSNYDWYFDVWGTGTTVTVSS
VL: DIQMTQSPASLSVSVGETVTITCRASENIYSNLAWYQQKQGKSPQLLVYAATNLADGVPSRFSGSGSGTQYSLKINSLQSEDFGSYYCQHFWGTPLTFGAGTKLELK
B4: MTK-30 (antibody, human IgG1, V domains shown)
VH: QVQLQQPGTELVRPGASVKLSCKASGYTFTSYWMHWVKQRPGQGLEWIGNLNPNNGGTYYNEKFKSKATLTVDKSSSTAYMQLSSLTSEDSAVYYCARQILLYFDYWGQGTTLTVSS
VL: DVLMTQTPLSLPVSLGDQASISCRSSQSIVHSNGDTYLEWYLQKPGQSPKLLIYKVSNRFSGVPDRFSGSGSGTDFTLKISRVEAEDLGVYYCFQGSHVPWTFGGGTKLEIK
B5: MTK-31 (antibody, human IgG1, V domains shown)
VH: QIQLVQSGPELKKSGETVKISCKASGYTFTSYGMSWVKQAPGKGLKWMGWINTYSGVPTYADDFKGRFAFSLETSASTAYLQINNLKNEDTATYFCASLSYDGSLYHAMDYWGQGTSVTVSS
VL: B4 VL with L3S, C23S, S28T, D35N

Target: T1, murine MerTK overexpressed on CHO cells …
Test: flow cytometry on CHO-muMerTK OE cells, Prism fit
Description: To determine whether recombinant anti-human MerTK antibodies of the present disclosure bind to human MerTK endogenously expressed on SK-MEL-5 cells and to CHO cells overexpressing mouse MerTK (CHO-muMerTK OE cells), the following experiments were performed. SK-MEL-5 cells and CHO-muMerTK OE cells were plated at 40,000 cells/well. Anti-MerTK antibodies were titrated to a final concentration range of between 66.6 nM to 4 pM and then added to the cells. After 30 min on ice, cells were washed and then stained with APC-conjugated mouse anti-human Kappa antibody (Southern Biotech Cat #9230-11, Birmingham, Ala.) and a viability die (Life Technologies) in the presence of Fc block solution on ice for 30 minutes, and then washed twice with cold FACS buffer (2% FBS in PBS). Cells were fixed with 4% paraformaldehyde in PBS. Stained cells were acquired on a BD FACS Canto II cytometer and the mean fluorescence intensity (MFI) was calculated with FlowJo software and K value was calculated with Prism software. […] A lower Kd value reflects higher binding of antibody to cells.

| Binder | Kd |
| --- | --- |
| B1 | 5.22 nM |
| B2 | 0.53 nM |
| B3 | 0.22 nM |
| B4 | 0.24 nM |
| B5 | 2.91 nM |

Reference: US20210261685A1 (Alector, published 2021)
